The record followed here is patent US20180094075A1 (Pfizer, published 2018).

The target of assay [1] is human PTK7 expressed on cells (cancer cell lines with endogenous PTK7; HEK293T-PTK7 over-expressing cells) (human) (UniProt Q13308). The experiment in a line: flow cytometry, H446 cells, 10 µg/mL. In general terms: In flow cytometry, cells or beads pass a laser one at a time.
For assay [2] the target is unchanged. The experiment in a line: flow cytometry, U2OS cells, 10 µg/mL.
The target is the same in assay [3]. The experiment in a line: flow cytometry, H661 cells, 10 µg/mL.
Assay [4] deals with T1, human PTK7 expressed on cells (cancer cell lines with endogenous PTK7; HEK293T-PTK7 over-expressing cells) (human, UniProt Q13308 31-1070).
T1 sequence: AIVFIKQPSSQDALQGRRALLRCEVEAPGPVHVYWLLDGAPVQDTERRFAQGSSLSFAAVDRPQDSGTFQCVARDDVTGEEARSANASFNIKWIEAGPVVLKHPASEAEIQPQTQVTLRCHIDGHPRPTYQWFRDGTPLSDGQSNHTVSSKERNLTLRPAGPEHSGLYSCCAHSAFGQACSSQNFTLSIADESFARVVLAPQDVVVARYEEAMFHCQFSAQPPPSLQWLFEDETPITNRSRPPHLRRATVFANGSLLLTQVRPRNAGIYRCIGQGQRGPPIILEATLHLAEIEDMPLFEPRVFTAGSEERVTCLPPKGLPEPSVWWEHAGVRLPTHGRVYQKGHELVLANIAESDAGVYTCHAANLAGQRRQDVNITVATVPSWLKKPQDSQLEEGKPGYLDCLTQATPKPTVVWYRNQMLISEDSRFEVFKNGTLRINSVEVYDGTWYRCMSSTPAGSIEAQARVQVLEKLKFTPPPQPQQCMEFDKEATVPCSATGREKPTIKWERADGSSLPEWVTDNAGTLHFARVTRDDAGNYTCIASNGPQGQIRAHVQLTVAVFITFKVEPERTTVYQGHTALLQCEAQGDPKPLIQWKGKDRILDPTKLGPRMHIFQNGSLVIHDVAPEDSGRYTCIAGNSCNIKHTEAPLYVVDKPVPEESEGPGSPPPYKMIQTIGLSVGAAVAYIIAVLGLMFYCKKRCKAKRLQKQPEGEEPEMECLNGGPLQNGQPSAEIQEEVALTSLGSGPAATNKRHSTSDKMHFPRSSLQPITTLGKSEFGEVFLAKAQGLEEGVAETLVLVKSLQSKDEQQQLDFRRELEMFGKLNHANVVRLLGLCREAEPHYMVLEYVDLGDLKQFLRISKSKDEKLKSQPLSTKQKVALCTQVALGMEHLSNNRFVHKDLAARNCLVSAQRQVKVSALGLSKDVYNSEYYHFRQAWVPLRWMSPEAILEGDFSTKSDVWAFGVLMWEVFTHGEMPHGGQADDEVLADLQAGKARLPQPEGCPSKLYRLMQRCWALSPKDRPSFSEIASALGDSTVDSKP
Nature of the assay: cell-based or functional assay.

Regarding Control mAb (Table 7) (antibody), the MFI is 11 in assay [1], 5.3 in assay [2] and 4.2 in assay [3].

B1: hu23 (humanized anti-PTK7 antibody) (antibody, V domains shown)
VH: QITLKESGPTLVKPTQTLTLTCTFSGFSLSTSNMGVGWIRQPPGKALEWLAHIWWDDDKYYSPSLKSRLTITKDTSKNQVVLTMTNMDPVDTATYYCVRSNYGYAWFAYWGQGTLVTVSS
VL: DIQMTQSPSSLSASVGDRVTITCKASQDIYPYLNWFQQKPGKAPKTLIYRTNRLLDGVPSRFSGSGSGTDFTFTISSLQPEDIATYYCLQYDEFPLTFGAGTKLEIKR
Take B1: in assay [4], the “IC50 of cell viability (MTS), antibody + saporin-conjugated anti-human Fab (Fab-ZAP), DMS114 cells” value is 0.0103 mg/L and the “IC50 of cell viability (MTS), antibody + saporin-conjugated anti-human Fab (Fab-ZAP), H446 cells” value is 0.0447 mg/L.
